Measured values reported in patent publication US20070265189A1.
Read-outs that look alike come from different tables or passages of the source. No end group written: not given here.

What was measured:
[1] = target: human insulin receptor (HIR) (human) (UniProt P06213); assay: HIR Kd; method not restated (Example 3: 125I-insulin displacement, solubilised HIR)
[2] = target: human insulin receptor (HIR) (human) (UniProt P06213); assay: as above; remark: listed apart in the source
[3] = target: Soluble IGF-1R (R&D Systems, Cat. # 391-GR/CF), P08069; assay: phage ELISA: IGF-1R ratio over background divided by IR ratio over background
[4] = target: T1, Insulin receptor prepared according to Bass et al., 1996 (human), P06213
[5] = target: Soluble IGF-1R (R&D Systems, Cat. # 391-GR/CF), P08069
[6] = target: T1, Insulin receptor prepared according to …; assay: phage ELISA: IR ratio over background divided by IGF-1R ratio over background
[7] = target: Soluble IGF-1R (sIGF-1R), R&D Systems Cat. # 391-GR/CF, P08069; assay: phage ELISA
[8] = target: soluble human insulin receptor-immunoglobulin heavy chain chimera (sIR-Fc; Bass et al., 1996) (human), P06213; assay: phage ELISA
[9] = target: soluble human insulin receptor-immunoglobulin heavy chain chimera (sIR-Fc; Bass et al., 1996) (human) (UniProt P06213); assay: phage ELISA
[10] = target: human insulin receptor (HIR) purified from transfected cells after solubilization with Triton X-100 (human) (UniProt P06213); assay: competition with 125I-insulin for solubilised HIR, PEG precipitation; Kd calculated

B1: Fusion 435 (MBP fusion of H2C-3aa-H2C-3aa-H2C) (protein, not shown: large carriers; small tags and cut ends)
chain: NNNNLGIEGRISEFIEGRAQPAMAFHENFYDWFVRQVSGGSFHENFYDWFVRQVSGGSFHENFYDWFVRQVSAAAGAPVPYPDPLEPRAA
- Kd [1]: 2000 nM
- Kd [2]: 20 nM

B2: RB537 (peptide)
peptide: MADYKDDDDKGSLDESFYDWFERQLGKKGGSGGSWLDQEWAWVQCEVYGRGCPSAAAGAPVPYPDPLEPRPG
- Kd [2]: 0.059 nM

B3: Fusion 436 (MBP fusion of H2C-9aa-H2C) (protein, not shown: large carriers; small tags and cut ends)
chain: NNNNLGIEGRISEFIEGRAQPAMAFHENFYDWFVRQVSGGSGGSGGSFHENFYDWFVRQVSAAAGAPVPYPDPLEPRAA
- Kd [2]: 410 nM

B4: B6L-4-A7-IR (peptide, not shown: large carriers)
peptide: DYKDAGTPAQVGXNRLWSVWPGEHWNTVDPFYNKLSELLRESGAAAAGAP
modifications: not fully specified; X: residue not identified in the source; also: phage-displayed fusion
- Comparison IGF-1R/IR [3]: 1.8
- Ratio over Background, IR (ratio over background) [4]: 1.9
- Ratio over Background, IGF-1R (ratio over background) [5]: 3.4
- Comparison IR/IGF-1R [6]: 0.6

B5: RB521 (peptide)
peptide: MADYKDDDDKGSLDESFYDWFERQLGKKGGSGGSGSLDESFYDWFERQLGKKAAAGAPVPYPDPLEPRPG
- Kd [2]: 44 nM

B6: 20E2B-2-B11-IGFR (peptide)
peptide: VVTPVNFYRALEALVRGXRLG
modifications: not fully specified; printed as VVTPVNFYRALEALVRG.RLG; X: residue not identified in the source
- IGF-1R/IR comparison [7]: 9.4
- Ratio over Background [7]: 10.6
- IR/IGF-1R comparison [8]: 0.1
- Ratio over Background [8]: 1.1

B7: Fusion 463 (MBP fusion of H2C-3aa-H2C) (protein, not shown: large carriers; small tags and cut ends)
chain: NNNNLGIEGRISEFIEGRAQPAMAFHENFYDWFVRQVSGGSFHENFYDWFVRQVSAAAGAPVPYPDPLEPRAA
- Kd [2]: 960 nM

B8: Fusion 464 (MBP fusion of LF-H2C) (protein, not shown: large carriers; small tags and cut ends)
chain: NNNNLGIEGRISEFIEGRDYKDDDDKFHENFYDWFVRQVSAAGAPVPYPDPLEPRAA
- Kd [1]: 39 nM

B9: B6Hα-2-C4-IR (peptide)
peptide: RCGRWXAEMGAGDDPFYHKLSELVCG
modifications: not fully specified; X: residue not identified in the source; cysteine pairing not given here
- IGF-1R/IR comparison [7]: 11
- Ratio over Background [7]: 9.9
- IR/IGF-1R comparison [8]: 0.1
- Ratio over Background [8]: 0.9

Binder: DYKDVDTPAQVGWNRLWSVGPGEHWYTDDPFYHXLSELLRESGAAAAGAP (peptide, not shown: large carriers, X: residue not identified in the source; also: phage-displayed fusion) [B6L-3-G6-IR]
- Comparison IGF-1R/IR [3]: 1.4
- Ratio over Background, IR (ratio over background) [4]: 1.8
- Ratio over Background, IGF-1R (ratio over background) [5]: 2.5
- Comparison IR/IGF-1R [6]: 0.7

Binder: YRGMLVLGRISGGAGKAASERPARIGQKVSAVNFYDWFV [A6L-0-H3-IR]
- IR/IGF-1R comparison [9]: 0.1
- Ratio over Background [9]: 2

Binder: RGAVAGFHDQFYDWFDRQVSRVHKFG [H2CA-4-H9-IGFR]
- IR/IGF-1R comparison [9]: 0.3
- Ratio over Background [9]: 1.9

B10: Fusion 437 (MBP fusion of H2C) (protein, not shown: large carriers; small tags and cut ends)
chain: NNNNLGIEGRISEFIEGRAQPAMAFHENFYDWFVRQVSAAAGAPVPYPDPLEPRAA
- Kd [1]: 8300 nM
- Kd [2]: 83 nM

B11: 20E2B-3-C11-IGFR (peptide)
peptide: CMMXDGFYAGLGCLLTAGEGR
modifications: not fully specified; printed as CMM.DGFYAGLGCLLTAGEGR; X: residue not identified in the source; cysteine pairing not given here
- IGF-1R/IR comparison [7]: 7.5
- Ratio over Background [7]: 15.4
- IR/IGF-1R comparison [8]: 0.1
- Ratio over Background [8]: 2.1

Binder: GSLDESFYDWFERQLG [S386]
- Kd [10]: 320 nM

B12: RB538 (peptide)
peptide: MADYKDDDDKGSLDESFYDWFERQLGKKGGSGGSGGSGGSWLDQEWAWVQCEVYGRGCPSAAAGAPVPYPDPLEPRPG
- Kd [2]: 0.017 nM

B13: RB517 (peptide)
peptide: DYKDDDDKHLCVLEELFWGASLFGYCSGGGSGGSHLCVLEELFWGASLFGYCSGAAAGAPVPYPDPLEPRAA
- Kd [2]: 60 nM
